This is an account of results in the DeepSol protein solubility set.

The nature of the series: soluble on expression in E. coli; label from the status in PepcDB or PDB records.
“MTVTIKELTNHNYIDHELSATLDSTDAFEGPEKLLEIWFFPHKKSITTEKTLRNIGMDRWIEILKLVKCEVLSMKKTKELDAFLLSESSLFVFDHKLTMKTCGTTTTLFCLEKLFQIVEQELSWAFRTTQGGKYKPFKVFYSRRCFLFPCKQAAIHQNWADEVDYLNKFFDNGKSYSVGRNDKSNHWNLYVTETDRSTPKGKEYIEDDDETFEVLMTELDPECASKFVCGPEASTTALVEPNEDKGHNLGYQMTKNTRLDEIYVNSAQDSDLSFHHDAFAFTPCGYSSNMILAEKYYYTLHVTPEKGWSYASFESNIPVFDISQGKQDNLDVLLHILNVFQPREFSMTFFTKNYQNQSFQKLLSINESLPDYIKLDKIVYDLDDYHLFYMKLQKKI”: the “soluble on expression in E. coli” value is “soluble”.

On to “MTVYFIGAGPGAADLITVRGQRLLQRCPVCLYAGSIMPDDLLAQCPPGATIVDTGPLTLEQIVRKLADADADGRDVARLHSGDPSLYSALAEQCRELDALGIGYEIVPGVPAFAAAAAALKRELTVPGVAQTVTLTRVATLSTPIPPGEDLAALARSRATLVLHLAAAQIDAIVPRLLDGGYRPETPVAVVAFASWPQQRTLRGTLADIAARMHDAKITRTAVIVVGDVLTAEGFTDSYLYSVARHGRYAQ”, for which the “soluble on expression in E. coli” value is listed as “not soluble”. As for “MTWLDEKGRFAIYEAPQNCPYLGTIGACYEFGSLPVILMFPELEKSFLKLLIRHIREDGYVPHDLGYHSLDSPIDGTTSPPRWKDMNPSLILLVYRYFKFTNDIEFLKEVYPILVKVMDWELRQCKGNLPFMEGEMDNAFDATIIKGHDSYTSSLFIGSLIAMREIAKLVGDSNYVDFISEKLSSAREAFRRMFNGRYFKAWDSVDNASFLAQLYGEWFTTLVGLEDIVEEDIIKKALESIIRLNGNASPHCVPNLVDDNGKIVGLSVQTYSSWPRMVFAICWLAYKKGVGDLSFCKKEWDNLVKNGMVWDQPSRINGYNGKAEMNYLDHYIGSPSPWSFLFLEHHHHHH”, the “soluble on expression in E. coli” value is recorded as “not soluble”. On to “MTWQPFYVGTGQAPAGAEEQVVLPPAPPWREFPRRSQHRQFVPPPRLAEAVNAALALRRPLLVTGPAGSGKSTVIEQVAAELALGDVLRWHITSRSSLAEALYRYDALGRIHAQRLEGPGGSDDIAPFLRMGPLGTALLPSARPRALLIDEIDKSDLDLPSDLLDVLERGEFEIPELARYGTDVVPVREHGGERTHLIARGRVQCAEFPFIVMTSNGDRDFPAAFLRRCIRFTMPLPTPETLLRVVEAHMGPEKAAADETGRLITVFLERLTAGESLAVDQLLNAVHLLTGDGAPGDDRRQAIAELILRELSHALEHHHHHH”, for which the “soluble on expression in E. coli” value is on record as “not soluble”.

Turning to “MTYETVERSKKSQVNLNNKEPFSVLLLGIDTGDDGRVEQGRSDTTIVATVNPRDKQTTLVSLARDTYVDIPGQGKQDKLNHAYAFGGASLAMDTVENYLNIPINHYVSINMAGLKELVNAVGGIEVNNNLTFSQDGYDFTIGKISLDGEQALSYSRMRYEDPNGDYGRQERQRKVIEGIVQKVLSLNSVSNYQEILTAVSDNMKTDLSFDDMKKIALDYRSAFGKVKQDQLQGTGFMQDGVSYQRVDEQELTRVQQELKNQLNTKLEHHHHHH”, the “soluble on expression in E. coli” value is listed as “soluble”. Regarding “MTYIIREMKQEDIHAVQSVAKIAWHDTYEGIIPREIQDSFLDEAYSDEKMKYRLKNTHLFVAEEEGEVIGFANFSPVRLQNEAELGAIYLLPDQQGKGIGSALLQRGIKALNGIRKLYIHVEAANEKGKRFYEAKGFAELEQFEEDFEGHMMQTVRMVLYV”, the “soluble on expression in E. coli” value is “not soluble”. The value for “MVAENQPGHIDQIKQTNAGAVYRLIDQLGPVSRIDLSRLAQLAPASITKIVREMLEAHLVQELEIKEAGNRGRPAVGLVVETEAWHYLSLRISRGEIFLALRDLSSKLVVEESQELALKDDSPLLDRIISHIDQFFIRHQKKLERLTSIAITLPGIIDTENGIVHRMPFYEDVKEMPLGEALEQHTGVPVYIQHDISAWTMAEALFGASRGARDVIQVVIDHNVGAGVITDGHLLHAGSSSLVEIGHTQVDPYGKRCYCGNHGCLETIASVDSILELAQLRLNQSMSSMLHGQPLTVDSLCQAALRGDLLAKDIITGVGAHVGRILAIMVNLFNPQKILIGSPLSKAADILFPVISDSIRQQALPAYSQHISVESTQFSNQGTMAGAALVKDAMYNGSLLIRLLQG” was “soluble”. The value for “MVAKISVGSSLFGALSYNQNKVDEEQGKVLLSNRMFESEDGNFSIRRCMECFDMHLPADLKTEKPIIHISLNPHPDDVLSDSQLADIAKEYMDKLGYGNQPYMVYKHEDIARHHIHIVSIRVDDTGKKINDKFEHIRSKQITRELEQKYGLHPAEKKQAADRPELKKVDYRAGDVKHQLSNTVKALASSYRFQSFTEYKALLSIYNVQAEEVKGEVNGKPYNGIVYSATNDKGEKQGNPFKSSSLGKSVGYEAIQRHIKKSTKDIQDKNLKERTRRTVGAVMKSAHSRKELEQELKRKGIDVLFRQNDTGRIYGVTFIDHENRTVLNGSRLGKDFSANVFNDLFSGSRTLSGNSKQETQEQKPEYNPTGHLENTGKAIAGLFSLLSGGNDTPPDNSQVPPPKKKKKKKQRRILEHHHHHH” was “soluble”. Take “MVARIYRPAKTAMQSGKAKTDQWLLEYEPEKPRVVEPLMGYTSSGDMKSQIRLFFASQEEAVAYATRNDIPYRLMEPHEPKRRKVSYSDNFRFDRPQPWTHLEHHHHHH”: the “soluble on expression in E. coli” value is “not soluble”.

“MVCIAAKCGNECSQCKHCHYALEQMSALAQGEKTSGLCPKLETCVFNCLTEDVSKVLSCVATRCNVHCYDGDCPSCKMISRRIFSNICKQHSMTTQPQIKYEGTCPNLFMELADDYVAMKKKKL”: the “soluble on expression in E. coli” value is on record as “not soluble”. The value for “MVCWSSHTASKQGNLMNQFYVHVRLFEDTAEQTKKFEELMLNFLYQKTVKESDDSCCRLIPEGYILKSTMNCQQILDQTFSIANSAGVDANIFVCKFEQSACLLPSASLVGNDFVHYDLTPKPIKLDS” was “not soluble”. The value for “MVDIIIAEHAGFCFGVKRAVKLAEESLKESQGKVYTLGPIIHNPQEVNRLKNLGVFPSQGEEFKEGDTVIIRSHGIPPEKEEALRKKGLKVIDATCPYVKAVHEAVCQLTREGYFVVLVGEKNHPEVIGTLGYLRACNGKGIVVETLEDIGEALKHERVGIVAQTTQNEEFFKEVVGEIALWVKEVKVINTICNATSLRQESVKKLAPEVDVMIIIGGKNSGNTRRLYYISKELNPNTYHIETAEELQPEWFRGVKRVGISAGASTPDWIIEQVKSRIQEICEGQLVSSRSHHHHHH” was “soluble”; that for “MVDLYQLFKTRTPIIGVVHLLPLPTSPRWGGSLKAVIDRAEQEATALASGGVNGIIVENFFDAPFTKNQVDPAVVSAMTVVVQRIQNLVTLPVGLNVLRNDGKSAMAIASCVRAQFIRVNVLTGVMATDQGLIEGEAHELLRYRRELGSDVQILADVLVKHARPLSSPNLTVAVKDTIERGLADAVILSGWATGSPPNQEDLELACDAANGTPVFIGSGASWENIATLLQAANGVIVSSSLKRHGRIEQPIDPIRVSQFVEAAHRSWNSKGESKSVSSITIHSLEHHHHHH” was “not soluble”; that for “MVDREWVLKIAKLARLELKEEEIEVFQKQLSDILDFIDQLKELDTENVEPYIQEFEETPMREDEPHPSLDREKALMNAPERKDGFFVVPRVVEV” was “soluble”.

Turning to “MVEADPRFQEAIRLFNAQEWYAAHDVLEEIWHETADPERRCLQGLLQVAVAQLHLQRDNQRGATILFGEALGRLRRPGTPDLGLDLPALCHCVQGRLVQLQQDGDPESCTVPVLSPSP”, the “soluble on expression in E. coli” value was “not soluble”. Regarding “MVEDTKTQMAAAISATLVFAARRRPLFCSLSSSSSSKPNTRKLVLYSKPGCCLCDGLKEKLHAAFTLSTGPDSLNDVTLQVRDITTNPEWERAYQYEIPVLAKENSDGKEEVLPRLSPRLSAELIQKKLLAAFS”, the “soluble on expression in E. coli” value is reported as “not soluble”. As to “MVEKELEEKVYKSIIKTIKDTPLEEFYTSGHRTCQGCESALVMRFLAKAAGPRTIVIGATGCMYVANTTYYTTSWIVPWVHTQLGGTGAAALGTAAALRALMRKGKIKQEPINVIAFCGDLGCADMGLSGVSNAMTYDYNLLIILYDNESSANTDIQETSMTPFGAQTSFSRPGKQRRIMKKRWKKSVVPMIIAGHRNVRYAATMTPAYPLDSMNKIRKALTIGGPTFIHSLDPCPKGWDYDPKFSHELGVLAVETGLWPLYEYIDGEIVYNEPTKSIVEGRMKRKPVKEYLEKQGRFSHFTEEDIEYVQRMVDEMYEEWEIPGVMPIKSINAKISDK”, the “soluble on expression in E. coli” value is “not soluble”. The value for “MVETPPAWVLLKRARERIYTLPPDFPGFRARLGLCLDGVWYVGAVEAEGFAPKTLGLFGEAGAIAEKELGSLLGHRRPAPFEEGEGRYPMRLFAEGPLGTGIALEDPFRSRIWVKEGRLALIERHLPEGSFRIHLETWREVGERLLPHRFLLVHRDPRGHLLKVERFRDEYAQVGPYWLPVEREVVVEGEGLGVLVLRLEEVEVKG” was “soluble”. The value for “MVFTPLDVRTIVSLPSCPKCNSEYTYEDGSLLICPECAHEWSADAGSADASDDVKVIKDSTGNVLQDGDTITVIKDLKVKGSSLVVKVGTKVKNIRLVDGDHDIDCKIDGIGAMKLKSEFVRKV” was “not soluble”; that for “MVFYLIGLGLGDVEDITVKGLNIVKNCARVHLEAYTSILCYGLDKTNLEKFYGREIIEADRTVVEQESDAILNGADKEDVALLVVGDPFGATTHADLVLRAKQQNIPVKVIHNASIMNAVGCCGLQLYNFGETVSIVMWTDEWQPESYYDKIALNRKRGMHTLCLLDIKTKEQTVENMMRGRKIFEPARYQKCSEAARQLLTIYERRKAKGEECAYDENTMVVGLARVGWDNQKIVYASMKDMSEMEMGEPLHSLIIPGETHPLEVDMLETFRP” was “not soluble”. In the case of “MVGGEDMAKKKAPSAKEGEKQQGFKEIIPEVTEKLVEQARKEVARERWVTPHKLAQKMGVKVSIARRVLRILEEEGVLVLFTRNRRSPLYLEHHHHHH” it was “not soluble”; in that of “MVGRVAQGKEPLHPGPRRQPGGARPGADLGPGGGVNPSPRKRVALFTDGACLGNPGPGGWAALLRFHAHEKLLSGGEACTTNNRMELKAAIEGLKALKEPCEVDLYTDSHYLKKAFTEGWLEGWRKRGWRTAEGKPVKNRDLWEALLLAMAPHRVRFHFVKGHTGHPENERVDREARRQAQSQAKTPCPPRAPTLFHEEA”, “soluble”; in that of “MVGYSSKLIFVSMITRHGDRAPFANIENANYSWGTELSELTPIGMNQEYNLGLQLRKRYIDKFGLLPEHYVDQSIYVLSSHTNRTVVSAQSLLMGLYPAGTGPLIGDGDPAIKDRFQPIPIMTLSADSRLIQFPYEQYLAVLKKYVYNSPEWQNKTKEAAPNFAKWQQILGNRISGLNDVITVGDVLIVAQAHGKPLPKGLSQEDADQIIALTDWGLAQQFKSQKVSYIMGGKLTNRMIEDLNNAVNGKSKYKMTYYSGHALTLLEVMGTLGVPLDTAPGYASNLEMELYKDGDIYTVKLRYNGKYVKLPIMDKNNSCSLDALNKYMQSINEKFQKHHHHHH”, “soluble”. In the case of “MVHYKLTYFLSRGLGDVSRQLFHLADVDFEDERLEKPHFLEKKETYPFKQVPVLSVDGFQIPQSMAIARYLAKKFGFAGKTAEESAMVDAFVDQFKDFYSEIRDYYYTMLGLGLTDLDGDEQKDKVLIPARDKFLPLLTRYLEKSKSGFLVDGGLTFADLIILDNMTSLLNWWPEYANDYPVILAWRDKVMNYPRLKEYIEKRPVTMY”, the “soluble on expression in E. coli” value is “not soluble”.
